In patent US9403882B2, “Sulfation of Wnt pathway proteins” (priority 2010, dated 2016):
No end group written: not given here. *: point of attachment. sulfate = O=S(=O)(O)*

Legend:
sclerostin-LRP binding = molecular target: T1, sclerostin-LRP binding (Homo sapiens, UniProt O75197); experiment: Sclerostin binding to LRP in the presence of peptides; settings: 667 μM peptide concentration; FIG. 12
T1 construct: expresses LRP5 extracellular domains 1 and 2 fused to alkaline phosphatase; made in house; host or cells: LRP5R1/2-AP from transfected 293T cells (conditioned medium)
T1 sequence (O75197 32-641 limits assumed): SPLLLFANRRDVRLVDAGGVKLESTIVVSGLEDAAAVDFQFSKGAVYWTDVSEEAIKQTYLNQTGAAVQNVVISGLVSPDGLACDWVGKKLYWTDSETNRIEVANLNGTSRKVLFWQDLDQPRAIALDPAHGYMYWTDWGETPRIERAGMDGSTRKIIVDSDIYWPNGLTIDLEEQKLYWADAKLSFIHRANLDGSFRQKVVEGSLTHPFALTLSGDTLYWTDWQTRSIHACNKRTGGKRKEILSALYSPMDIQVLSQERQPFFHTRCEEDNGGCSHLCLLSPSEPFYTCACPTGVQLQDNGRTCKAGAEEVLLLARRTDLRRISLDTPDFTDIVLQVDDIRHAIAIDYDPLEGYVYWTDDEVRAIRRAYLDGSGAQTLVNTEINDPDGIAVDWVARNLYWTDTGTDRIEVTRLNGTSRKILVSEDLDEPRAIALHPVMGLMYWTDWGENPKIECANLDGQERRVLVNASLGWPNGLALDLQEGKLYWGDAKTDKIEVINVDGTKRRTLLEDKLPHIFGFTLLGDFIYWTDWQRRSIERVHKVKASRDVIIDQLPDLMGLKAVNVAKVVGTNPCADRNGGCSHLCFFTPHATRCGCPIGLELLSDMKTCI
Procedure: Various amounts of unmodified sclerostin or the in vitro treated sclerostin from Example 1 were diluted into 80 μl of TBST buffer and added to individual wells of 96 well plates. After overnight incubation, unbound proteins were removed after which point the coated plates were blocked with 3% nonfat milk in PBS. The plates were than decanted and 0.5×LRP5R1/2AP conditioned medium was added to the plates. After 2.5 hours, the conditioned medium was removed and the 96 well plates were washed five times for three minutes with TBST. The alkaline phosphatase activity in each well was then determined using the Tropix luminescence assay kit (Invitrogen, Carlsbad, Calif.).
Sclerostin binding to LRP in the presence or absence of the sulfated or unsulfated peptides, at 667 μM peptide concentration, was tested using the binding assay essentially as described in Example 3.

[1] = molecular target: T2, LRP5 extracellular domains 1 and 2 fused to alkaline phosphatase (Homo sapiens, UniProt O75197); experiment: Binding of AlkPhos-LRP5 to plate-coated sclerostin; settings: TPST-1-treated vs untreated recombinant sclerostin; FIG. 2
T2 construct: expresses LRP5 extracellular domains 1 and 2 fused to alkaline phosphatase; made in house; host or cells: 293T cells, transfected; concentrated conditioned medium
T2 sequence (O75197 32-641 limits assumed): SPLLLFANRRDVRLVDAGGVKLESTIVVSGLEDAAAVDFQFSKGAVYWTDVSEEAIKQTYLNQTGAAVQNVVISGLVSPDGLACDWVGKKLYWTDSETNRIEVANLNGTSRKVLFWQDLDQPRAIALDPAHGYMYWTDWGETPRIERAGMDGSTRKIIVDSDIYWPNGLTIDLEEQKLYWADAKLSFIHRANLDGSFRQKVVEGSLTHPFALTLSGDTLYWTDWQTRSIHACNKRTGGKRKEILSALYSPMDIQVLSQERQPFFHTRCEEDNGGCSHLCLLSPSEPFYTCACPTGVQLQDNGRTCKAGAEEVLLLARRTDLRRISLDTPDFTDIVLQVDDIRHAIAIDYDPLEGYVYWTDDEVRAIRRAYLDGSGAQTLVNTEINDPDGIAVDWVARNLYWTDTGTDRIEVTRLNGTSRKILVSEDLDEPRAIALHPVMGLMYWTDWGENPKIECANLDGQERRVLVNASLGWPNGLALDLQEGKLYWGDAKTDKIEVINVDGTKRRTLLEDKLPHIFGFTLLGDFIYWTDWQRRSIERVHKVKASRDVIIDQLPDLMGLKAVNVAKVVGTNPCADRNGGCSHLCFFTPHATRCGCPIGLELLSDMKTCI

[2] = test system: Wnt induced alkaline phosphatase activity; experiment: Wnt 3a induced alkaline phosphatase activity in 10T1/2 cells; type: cell-based; settings: 24 hours, vs untreated sclerostin, highest level of sclerostin input, FIG. 3
Procedure: Growing cultures of 10T1/2 cells were washed with PBS and trypsinized for 5 minutes. Cells were resuspended at a concentration of 6×10^5 cells/ml and 10 μl were seeded into individual wells of a Costar 96 well plate (Corning, Inc.). Wnt 3a and either the untreated sclerostin or the sclerostin from Example 1 were added and the plates were incubated at 37° C. for 24 hours. 50 μl of universal lysis buffer (from the Luciferase Reporter Gene Assay, Roche Applied Science, Indianapolis, Ind.) was added to each well at ambient temperature for 5 minutes. Detection of alkaline phosphatase was measured by the addition of 50 μl of ready-to-use CPSD with Sapphire Enhancer (Applied Biosystems) followed by an incubation at ambient temperature for 25 minutes.

Wnt signaling = experiment: Cell-based luciferase assay using Wnt reporter cells (Dkk1 inhibition of Wnt signaling); settings: Dkk1 from insect cells untreated (sulfated) vs chlorate treated (unsulfated); FIG. 10
Procedure: These four Dkk1 preparations were used at three concentrations in a cell-based luciferase assay using the Wnt reporter cells essentially as described in U.S. Patent Publication 2006/0198791 to determine the effect of sulfation on the ability of Dkk1 to inhibit Wnt signaling. Briefly, the cells were seeded in 96-well microtiter plates at 2×10^5 cells per well, in 50 μl assay medium. After incubation at 37° C. in a 5% CO2 atmosphere overnight, 50 μl DMEM was added to each well. Wnt3a was then added, to a final concentration of 300 ng/ml, followed by addition of either buffer, sulfated Dkk1 or unsulfated Dkk1, where Dkk1 was added to a final concentration of 0.4, 0.133 or 0.044 μg/ml. The plates were then incubated at 37° C. in a 5% CO2 atmosphere for 6 h. Luciferase substrate was then added and chemiluminescence was measured. Each treatment was performed in duplicate.

| Molecule | inhibition of sclerostin-LRP binding (sclerostin-LRP binding) | further results |
| --- | --- | --- |
| H-C-R-S-A-K-A-N-Q-A-E-L-E-N-A-Y-OH (H-HCRSAKANQAELENAY-OH) [PRN8831] | inhibition of sclerostin-LRP binding |  |
| H-P-E-L-G-E-Y-P-E-P-P-P-E-L-E-C-NH2 (H-HPELGEYPEPPPELEC-NH2) [PRN8829] | inhibition of sclerostin-LRP binding |  |
| PRN8830: sulfated P43, sequence of sclerostin amino acids 37-52 where 43 is the sulfation site (HPELGEY(sulfate)PEPPPELEC-NH2) | inhibition of sclerostin-LRP binding |  |
| mouse versions of sclerostin: mouse sclerostin, TPST-treated compared with untreated |  | amount of AlkPhos-LRP5 bound to the plates [1]: essentially similar results |
| sclerostin treated in vitro with TPST: human sclerostin (R&D Systems) sulfated in vitro with human TPST1 and PAPS |  | blockage of Wnt induced alkaline phosphatase activity [2]: significantly (P=0.006) more efficient blockage of Wnt induced alkaline phosphate activity |
| sulfated Dkk1: Dkk1 prepared in insect cells untreated with chlorate (protein, UniProt O94907 32-266, looked up, sulfated, insect cell-expressed, Dkk1 prepared in insect cells untreated with chlorate) Dickkopf-related protein 1: TLNSVLNSNAIKNLPPPLGGAAGHPGSAVSAAPGILYPGGNKYQTIDNYQPYPCAEDEECGTDEYCASPTRGGDAGVQICLACRKRRKRCMRHAMCCPGNYCKNGICVSSDQNHFRGEIEETITESFGNDHSTLDGYSRRTTLSSKMYHTKGQEGSVCLRSSDCASGLCCARHFWSKICKPVLKEGQVCTKHRRKGSHGLEIFQRCYCGEGLSCRIQKDHHQASNSSRLHTCQRH |  | inhibition of Wnt activity (Wnt signaling): greater inhibition of Wnt activity |
